Data on two molecules can be found in publication PMC3961188, “The bHLH Factors Extramacrochaetae and Daughterless Control Cell Cycle in Drosophila Imaginal Discs through the Transcriptional Regulation of the cdc25 Phosphatase string”.

The target in data set [1] is T1, Daughterless (Da), GST fusion (Drosophila melanogaster, UniProt P11420 1-710).
T1 sequence: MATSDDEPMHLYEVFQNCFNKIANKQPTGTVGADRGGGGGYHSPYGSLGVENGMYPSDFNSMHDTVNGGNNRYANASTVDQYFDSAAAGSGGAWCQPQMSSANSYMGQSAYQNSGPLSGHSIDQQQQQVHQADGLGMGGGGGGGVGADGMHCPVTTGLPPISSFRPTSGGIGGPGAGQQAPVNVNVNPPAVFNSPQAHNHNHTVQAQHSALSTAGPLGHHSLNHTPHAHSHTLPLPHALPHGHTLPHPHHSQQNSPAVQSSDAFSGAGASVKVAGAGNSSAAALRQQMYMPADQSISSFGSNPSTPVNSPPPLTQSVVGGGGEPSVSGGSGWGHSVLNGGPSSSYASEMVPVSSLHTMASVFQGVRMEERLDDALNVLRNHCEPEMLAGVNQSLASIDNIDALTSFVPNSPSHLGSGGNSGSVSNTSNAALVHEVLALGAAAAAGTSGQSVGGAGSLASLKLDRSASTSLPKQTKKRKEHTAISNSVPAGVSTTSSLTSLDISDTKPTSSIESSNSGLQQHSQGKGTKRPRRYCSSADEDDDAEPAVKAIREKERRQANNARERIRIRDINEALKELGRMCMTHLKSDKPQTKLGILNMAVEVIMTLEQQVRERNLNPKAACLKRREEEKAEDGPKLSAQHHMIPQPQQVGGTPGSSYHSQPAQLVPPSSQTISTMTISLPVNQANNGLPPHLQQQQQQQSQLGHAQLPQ
Nature of the data set: EMSA; Cy5 and Cy3 versions of the probe; not stated in the material (EMSA buffer, salt, pH and temperature not given). The following applies: protein: recombinant; tags: N-terminal GST (pDEST 15); chain copies: 2; blunt. In general terms: A gel shift assay detects complexes by their altered migration in electrophoresis.

Data set [2] deals with T1, Daughterless (Da), GST fusion. Nature of the data set: EMSA; direct Cy5 probe; not stated in the material (EMSA buffer, salt, pH and temperature not given). The following applies: protein: recombinant; tags: N-terminal GST (pDEST 15); chain copies: 2; blunt.

B1: stg prom (cy5 / cy3) (dsDNA)
DNA 1: TAGCTCATCAGCTGATCGTGA
DNA 2: TCACGATCAGCTGATGAGCTA
In the case of B1, the binding result in data set [1] is recorded as “binds”.

B2: stg prom* (cy5) (dsDNA)
DNA 1: TAGCTCATACTAGTATCGTGA
DNA 2: TCACGATACTAGTATGAGCTA
Take B2: the binding result in data set [2] is recorded as “no binding”.
